Earlier results on one substance are cited in paper PMC9986639.

Broadly, the Kd is the free concentration of one partner at which half of the binding sites on the other are occupied at equilibrium, for simple one-to-one binding.

The target of this series is PAPR (Escherichia coli) (UniProt P17854).
Chain of PAPR (Escherichia coli) (P17854 2-244): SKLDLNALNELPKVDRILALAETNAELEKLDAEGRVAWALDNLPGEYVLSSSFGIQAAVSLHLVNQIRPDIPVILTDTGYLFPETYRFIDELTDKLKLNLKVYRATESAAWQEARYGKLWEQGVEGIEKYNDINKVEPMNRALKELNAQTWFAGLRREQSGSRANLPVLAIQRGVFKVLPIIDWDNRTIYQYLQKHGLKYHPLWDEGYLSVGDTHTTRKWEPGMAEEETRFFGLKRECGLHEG

Chain of Trx1 (P0AA25 2-109): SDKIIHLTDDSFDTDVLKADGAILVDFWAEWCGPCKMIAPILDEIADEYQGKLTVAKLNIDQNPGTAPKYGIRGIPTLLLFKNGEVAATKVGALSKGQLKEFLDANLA

With Trx1 (from UniProt P0AA25), the Kd was 110 µM.
